Experimental data taken from publication PMC12314576, “The Actin‐Binding Prolyl‐Isomerase Par17 Sustains Its Substrate Selectivity by Interdomain Allostery” (Proteins, 2025).
Starred links: 1 amine or outer side, 2 acyl side, 3 side chain; linkers in the order of their positions; H or OH if unused. *: point of attachment. pNA = O=[N+]([O-])c1ccc(N*)cc1; Suc = O=C(CCC(=O)[*:2])[*:1]

Target: Parvulin 17 (human) (UniProt Q9Y237)
Test: NMR titration; substrate peptides added stepwise to 15N-labelled parvulin (300 μM, up to 3 mM peptide, 1:10); BEST-TROSY-HSQC at 20°C, 50 mM KPi buffer pH 6.7; microscopic (residue-specific) KD fitted with a 1:1 binding model

Chain of Parvulin 17 (human) (Q9Y237 other isoform, or with tags, fused parts or gaps): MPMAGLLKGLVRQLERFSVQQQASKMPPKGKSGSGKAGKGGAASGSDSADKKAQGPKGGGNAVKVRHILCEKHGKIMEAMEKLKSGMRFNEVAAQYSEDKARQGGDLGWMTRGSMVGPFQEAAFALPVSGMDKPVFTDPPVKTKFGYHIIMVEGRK

microscopic (residue-specific) KD, V116 [mM]	Binder
17	Suc-ARPF-pNA (SMILES C[C@H](NC(=O)CCC(=O)O)C(=O)N[C@@H](CCCNC(=N)N)C(=O)N1CCC[C@H]1C(=O)N[C@@H](Cc1ccccc1)C(=O)Nc1ccc([N+](=O)[O-])cc1) [Suc-Ala-Arg-Pro-Phe-pNA]
24	Suc-AKPF-pNA (SMILES C[C@H](NC(=O)CCC(=O)O)C(=O)N[C@@H](CCCCN)C(=O)N1CCC[C@H]1C(=O)N[C@@H](Cc1ccccc1)C(=O)Nc1ccc([N+](=O)[O-])cc1) [Suc-Ala-Lys-Pro-Phe-pNA]
